Measurements from article PMC10897159, “Structural insights into the activation mechanism of antimicrobial GBP1” (The EMBO Journal, 2024).
Each block holds one binder with its values, some of them ahead of it.

Tests used:
[1] = biological target: T1, human guanylate-binding protein 1 (GBP1), wild-type, non-farnesylated (human), P32455; experiment: specific GTPase activity against protein concentration (HPLC), quadratic fit; apparent Kd of dimer formation; non-farnesylated GBP1, 1 mM GTP, 37 °C, 50 mM Tris-HCl pH 7.9, 150 mM NaCl, 5 mM MgCl2; dimer to monomers; conditions: remark: other sources report otherwise
T1 chain: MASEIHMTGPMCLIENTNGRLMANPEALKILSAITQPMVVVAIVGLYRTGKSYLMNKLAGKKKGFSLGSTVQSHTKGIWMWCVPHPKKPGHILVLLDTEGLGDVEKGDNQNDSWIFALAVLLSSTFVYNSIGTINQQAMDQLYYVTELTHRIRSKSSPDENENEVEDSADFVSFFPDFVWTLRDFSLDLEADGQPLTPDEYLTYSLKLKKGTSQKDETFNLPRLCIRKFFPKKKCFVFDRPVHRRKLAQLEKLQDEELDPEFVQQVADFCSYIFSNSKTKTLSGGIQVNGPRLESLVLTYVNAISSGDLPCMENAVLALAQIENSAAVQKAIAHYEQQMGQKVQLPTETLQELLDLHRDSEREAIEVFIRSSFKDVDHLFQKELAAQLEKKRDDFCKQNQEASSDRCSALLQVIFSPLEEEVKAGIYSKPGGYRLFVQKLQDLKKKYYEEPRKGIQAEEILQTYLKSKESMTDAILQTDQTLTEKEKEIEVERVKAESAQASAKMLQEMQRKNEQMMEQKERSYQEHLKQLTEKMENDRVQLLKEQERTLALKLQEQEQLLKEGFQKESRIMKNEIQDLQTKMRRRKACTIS

[2] = biological target: T1, human guanylate-binding protein 1 …; experiment: cross-linking; BS3 at 20-times molar excess, 20 µM protein, with 200 µM GDP, 300 µM AlCl3, 10 mM NaF (GDP•AlFx); 50 mM HEPES, 150 mM NaCl, 5 mM MgCl2; SDS-PAGE; conditions: remark: other sources report otherwise
[3] = biological target: the molecule itself; experiment: SEC; analytical SEC (Superdex 200 5/150), 20 µM protein with 200 µM GDP, 300 µM AlCl3, 10 mM NaF (GDP•AlFx); 50 mM Tris-HCl pH 7.9, 150 mM NaCl, 5 mM MgCl2
[4] = biological target: the molecule itself; experiment: specific GDPase activity against protein concentration (HPLC), quadratic fit; apparent Kd of dimer formation; isolated LG domains, 1 mM GDP, 37 °C, 50 mM Tris-HCl pH 7.9, 150 mM NaCl, 5 mM MgCl2; dimer to monomers

Kd [1]: 1.9 µM
stoichiometry N [2]: 2
B1: human guanylate-binding protein 1 (GBP1), wild-type, non-farnesylated, P32455 1-592 (natural protein)
chain: T1 chain

B2: isolated LG domain of GBP1, wild-type (domain or fragment, human, UniProt P32455 1-317, looked up)
chain: MASEIHMTGPMCLIENTNGRLMANPEALKILSAITQPMVVVAIVGLYRTGKSYLMNKLAGKKKGFSLGSTVQSHTKGIWMWCVPHPKKPGHILVLLDTEGLGDVEKGDNQNDSWIFALAVLLSSTFVYNSIGTINQQAMDQLYYVTELTHRIRSKSSPDENENEVEDSADFVSFFPDFVWTLRDFSLDLEADGQPLTPDEYLTYSLKLKKGTSQKDETFNLPRLCIRKFFPKKKCFVFDRPVHRRKLAQLEKLQDEELDPEFVQQVADFCSYIFSNSKTKTLSGGIQVNGPRLESLVLTYVNAISSGDLPCMENAVL
notes: large GTPase (LG) domain of GBP1, human; stop codon in place of A318 (primer A318*); also called wild-type LG domain; WT; source: E. coli, pQE-80L, purified (Ni Sepharose HP, Superdex 200)
stoichiometry N [3]: 2
Kd [4]: 110 µM
